According to patent publication EP4692118A1:
Values belong to the molecule of their own block, whether it stands above or below them.

Key:
[1] = biological target: ADAM9 on human tumour cells (LS174T, HepG2, Calu-3, Colo205) (human) (UniProt Q13443); assay: flow cytometry on LS174T cells, 3.906250 nM, negative control
[2] = biological target: ADAM9 on human tumour cells (LS174T, HepG2, Calu-3, Colo205) (human) (UniProt Q13443); assay: flow cytometry on LS174T cells, 0.000954 nM, negative control
[3] = biological target: ADAM9 on human tumour cells (LS174T, HepG2, Calu-3, Colo205) (human) (UniProt Q13443); assay: flow cytometry on HepG2 cells, 250 nM, negative control
[4] = biological target: ADAM9 on human tumour cells (LS174T, HepG2, Calu-3, Colo205) (human) (UniProt Q13443); assay: flow cytometry on LS174T cells, 1000 nM, negative control
[5] = biological target: ADAM9 on human tumour cells (LS174T, HepG2, Calu-3, Colo205) (human) (UniProt Q13443); assay: flow cytometry on LS174T cells, 0.244141 nM, negative control
[6] = biological target: ADAM9 on human tumour cells (LS174T, HepG2, Calu-3, Colo205) (human) (UniProt Q13443); assay: flow cytometry on LS174T cells, 250 nM, negative control
[7] = biological target: ADAM9 on human tumour cells (LS174T, HepG2, Calu-3, Colo205) (human) (UniProt Q13443); assay: flow cytometry on LS174T cells, 15.625 nM, negative control
[8] = biological target: ADAM9 on human tumour cells (LS174T, HepG2, Calu-3, Colo205) (human) (UniProt Q13443); assay: flow cytometry on HepG2 cells, 0.061035 nM, negative control
[9] = biological target: ADAM9 on human tumour cells (LS174T, HepG2, Calu-3, Colo205) (human) (UniProt Q13443); assay: flow cytometry on HepG2 cells, 0.015259 nM, negative control
[10] = biological target: ADAM9 on human tumour cells (LS174T, HepG2, Calu-3, Colo205) (human) (UniProt Q13443); assay: flow cytometry on LS174T cells, 0.003815 nM, negative control
[11] = biological target: ADAM9 on human tumour cells (LS174T, HepG2, Calu-3, Colo205) (human) (UniProt Q13443); assay: flow cytometry on HepG2 cells, 0.000238 nM, negative control
[12] = biological target: ADAM9 on human tumour cells (LS174T, HepG2, Calu-3, Colo205) (human) (UniProt Q13443); assay: flow cytometry on HepG2 cells, 0.000954 nM, negative control
[13] = biological target: ADAM9 on human tumour cells (LS174T, HepG2, Calu-3, Colo205) (human) (UniProt Q13443); assay: flow cytometry on HepG2 cells, 1000 nM, negative control
[14] = biological target: ADAM9 on human tumour cells (LS174T, HepG2, Calu-3, Colo205) (human) (UniProt Q13443); assay: flow cytometry on HepG2 cells, 3.906250 nM, negative control
[15] = biological target: ADAM9 on human tumour cells (LS174T, HepG2, Calu-3, Colo205) (human) (UniProt Q13443); assay: flow cytometry on LS174T cells, 0.061035 nM, negative control
[16] = biological target: ADAM9 on human tumour cells (LS174T, HepG2, Calu-3, Colo205) (human) (UniProt Q13443); assay: flow cytometry on HepG2 cells, 62.5 nM, negative control
[17] = biological target: ADAM9 on human tumour cells (LS174T, HepG2, Calu-3, Colo205) (human) (UniProt Q13443); assay: flow cytometry on HepG2 cells, 0.244141 nM, negative control
[18] = biological target: ADAM9 on human tumour cells (LS174T, HepG2, Calu-3, Colo205) (human) (UniProt Q13443); assay: flow cytometry on LS174T cells, 62.5 nM, negative control
[19] = biological target: ADAM9 on human tumour cells (LS174T, HepG2, Calu-3, Colo205) (human) (UniProt Q13443); assay: flow cytometry on LS174T cells, 0.976563 nM, negative control
[20] = biological target: ADAM9 on human tumour cells (LS174T, HepG2, Calu-3, Colo205) (human) (UniProt Q13443); assay: flow cytometry on LS174T cells, 0.015259 nM, negative control
[21] = biological target: ADAM9 on human tumour cells (LS174T, HepG2, Calu-3, Colo205) (human) (UniProt Q13443); assay: flow cytometry on HepG2 cells, 15.625 nM, negative control
[22] = biological target: ADAM9 on human tumour cells (LS174T, HepG2, Calu-3, Colo205) (human) (UniProt Q13443); assay: flow cytometry on HepG2 cells, 0.003815 nM, negative control
[23] = biological target: ADAM9 on human tumour cells (LS174T, HepG2, Calu-3, Colo205) (human) (UniProt Q13443); assay: flow cytometry on HepG2 cells, 0.976563 nM, negative control
[24] = biological target: ADAM9 on human tumour cells (LS174T, HepG2, Calu-3, Colo205) (human) (UniProt Q13443); assay: flow cytometry on LS174T cells, 3.906250 nM
[25] = biological target: ADAM9 on human tumour cells (LS174T, HepG2, Calu-3, Colo205) (human) (UniProt Q13443); assay: flow cytometry on LS174T cells, 0.015259 nM
[26] = biological target: ADAM9 on human tumour cells (LS174T, HepG2, Calu-3, Colo205) (human) (UniProt Q13443); assay: flow cytometry on LS174T cells, 0.061035 nM
[27] = biological target: ADAM9 on human tumour cells (LS174T, HepG2, Calu-3, Colo205) (human) (UniProt Q13443); assay: flow cytometry on LS174T cells, 15.625 nM
[28] = biological target: ADAM9 on human tumour cells (LS174T, HepG2, Calu-3, Colo205) (human) (UniProt Q13443); assay: flow cytometry on LS174T cells, 1000 nM
[29] = biological target: ADAM9 on human tumour cells (LS174T, HepG2, Calu-3, Colo205) (human) (UniProt Q13443); assay: flow cytometry on LS174T cells, 0.244141 nM
[30] = biological target: ADAM9 on human tumour cells (LS174T, HepG2, Calu-3, Colo205) (human) (UniProt Q13443); assay: flow cytometry on LS174T cells, 250 nM
[31] = biological target: ADAM9 on human tumour cells (LS174T, HepG2, Calu-3, Colo205) (human) (UniProt Q13443); assay: flow cytometry on LS174T cells, 0.003815 nM
[32] = biological target: ADAM9 on human tumour cells (LS174T, HepG2, Calu-3, Colo205) (human) (UniProt Q13443); assay: flow cytometry on LS174T cells, 0.976563 nM
[33] = biological target: ADAM9 on human tumour cells (LS174T, HepG2, Calu-3, Colo205) (human) (UniProt Q13443); assay: cell-based or functional assay
[34] = biological target: ADAM9 on human tumour cells (LS174T, HepG2, Calu-3, Colo205) (human) (UniProt Q13443); assay: flow cytometry on LS174T cells, 0.000954 nM
[35] = biological target: ADAM9 on human tumour cells (LS174T, HepG2, Calu-3, Colo205) (human) (UniProt Q13443); assay: flow cytometry on LS174T cells, 62.5 nM
[36] = biological target: ADAM9 on human tumour cells (LS174T, HepG2, Calu-3, Colo205) (human) (UniProt Q13443); assay: flow cytometry on HepG2 cells, 0.000238 nM
[37] = biological target: ADAM9 on human tumour cells (LS174T, HepG2, Calu-3, Colo205) (human) (UniProt Q13443); assay: flow cytometry on HepG2 cells, 0.061035 nM
[38] = biological target: ADAM9 on human tumour cells (LS174T, HepG2, Calu-3, Colo205) (human) (UniProt Q13443); assay: flow cytometry on HepG2 cells, 0.000954 nM
[39] = biological target: ADAM9 on human tumour cells (LS174T, HepG2, Calu-3, Colo205) (human) (UniProt Q13443); assay: flow cytometry on HepG2 cells, 62.5 nM
[40] = biological target: ADAM9 on human tumour cells (LS174T, HepG2, Calu-3, Colo205) (human) (UniProt Q13443); assay: flow cytometry on HepG2 cells, 250 nM
[41] = biological target: ADAM9 on human tumour cells (LS174T, HepG2, Calu-3, Colo205) (human) (UniProt Q13443); assay: flow cytometry on HepG2 cells, 0.003815 nM
[42] = biological target: ADAM9 on human tumour cells (LS174T, HepG2, Calu-3, Colo205) (human) (UniProt Q13443); assay: flow cytometry on HepG2 cells, 0.244141 nM
[43] = biological target: ADAM9 on human tumour cells (LS174T, HepG2, Calu-3, Colo205) (human) (UniProt Q13443); assay: flow cytometry on HepG2 cells, 15.625 nM
[44] = biological target: ADAM9 on human tumour cells (LS174T, HepG2, Calu-3, Colo205) (human) (UniProt Q13443); assay: flow cytometry on HepG2 cells, 0.976563 nM
[45] = biological target: ADAM9 on human tumour cells (LS174T, HepG2, Calu-3, Colo205) (human) (UniProt Q13443); assay: flow cytometry on HepG2 cells, 0.015259 nM
[46] = biological target: ADAM9 on human tumour cells (LS174T, HepG2, Calu-3, Colo205) (human) (UniProt Q13443); assay: flow cytometry on HepG2 cells, 3.906250 nM
[47] = biological target: ADAM9 on human tumour cells (LS174T, HepG2, Calu-3, Colo205) (human) (UniProt Q13443); assay: flow cytometry on HepG2 cells, 1000 nM

Chain of ADAM9 on human tumour cells (LS174T, HepG2, Calu-3, Colo205) (human) (Q13443 29-819): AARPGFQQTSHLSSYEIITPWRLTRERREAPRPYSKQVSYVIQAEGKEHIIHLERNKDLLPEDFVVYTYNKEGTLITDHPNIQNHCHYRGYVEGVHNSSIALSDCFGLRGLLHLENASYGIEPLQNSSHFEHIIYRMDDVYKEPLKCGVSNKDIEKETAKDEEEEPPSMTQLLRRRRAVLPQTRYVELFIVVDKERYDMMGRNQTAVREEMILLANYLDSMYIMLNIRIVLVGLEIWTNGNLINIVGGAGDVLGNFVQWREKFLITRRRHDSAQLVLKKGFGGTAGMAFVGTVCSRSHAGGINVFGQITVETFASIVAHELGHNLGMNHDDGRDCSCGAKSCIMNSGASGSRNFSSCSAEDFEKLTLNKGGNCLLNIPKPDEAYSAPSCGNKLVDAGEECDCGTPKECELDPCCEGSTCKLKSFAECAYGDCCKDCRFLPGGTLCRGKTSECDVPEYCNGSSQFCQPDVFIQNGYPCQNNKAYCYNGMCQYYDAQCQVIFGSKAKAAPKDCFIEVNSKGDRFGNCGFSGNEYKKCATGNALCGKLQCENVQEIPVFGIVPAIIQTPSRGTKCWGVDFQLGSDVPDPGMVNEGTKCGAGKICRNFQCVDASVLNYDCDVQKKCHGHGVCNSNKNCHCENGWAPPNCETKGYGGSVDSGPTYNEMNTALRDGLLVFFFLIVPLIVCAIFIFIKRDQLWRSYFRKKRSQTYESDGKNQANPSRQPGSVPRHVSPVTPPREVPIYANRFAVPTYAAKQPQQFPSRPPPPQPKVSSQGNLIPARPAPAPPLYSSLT

- Mean fluorescence intensity [1]: 203
- Mean fluorescence intensity [2]: 220
- Mean fluorescence intensity (MFI) [3]: 389
- Mean fluorescence intensity [4]: 368
- Mean fluorescence intensity [5]: 208
- Mean fluorescence intensity [6]: 269
- Mean fluorescence intensity [7]: 209
- Mean fluorescence intensity (MFI) [8]: 377
- Mean fluorescence intensity (MFI) [9]: 371
- Mean fluorescence intensity [10]: 254
- Mean fluorescence intensity (MFI) [11]: 361
- Mean fluorescence intensity (MFI) [12]: 365
- Mean fluorescence intensity (MFI) [13]: 690
- Mean fluorescence intensity (MFI) [14]: 361
- Mean fluorescence intensity [15]: 202
- Mean fluorescence intensity (MFI) [16]: 386
- Mean fluorescence intensity (MFI) [17]: 363
- Mean fluorescence intensity [18]: 229
- Mean fluorescence intensity [19]: 212
- Mean fluorescence intensity [20]: 213
- Mean fluorescence intensity (MFI) [21]: 364
- Mean fluorescence intensity (MFI) [22]: 349
- Mean fluorescence intensity (MFI) [23]: 360
Molecule: anti-HIV human IgG antibody (iso-IgG1, produced by WuXi AppTec)

- Mean fluorescence intensity [24]: 2380
- Mean fluorescence intensity [25]: 268
- Mean fluorescence intensity [26]: 447
- Mean fluorescence intensity [27]: 2400
- Mean fluorescence intensity [28]: 1130
- Mean fluorescence intensity [29]: 954
- Mean fluorescence intensity [30]: 2130
- Mean fluorescence intensity [31]: 219
- Mean fluorescence intensity [32]: 1960
- IC50 (nM) of proliferation inhibition, Calu-3 cells, CellTiter-Glo, 6 days [33]: 3.83 nM
- IC50 (nM) of proliferation inhibition, Colo205 cells, CellTiter-Glo, 6 days [33]: 29.8 nM
- IC50 (nM) of proliferation inhibition, LS174T cells, CellTiter-Glo, 6 days [33]: 8.97 nM
- Mean fluorescence intensity [34]: 223
- Mean fluorescence intensity [35]: 2160
B1: antibody-drug conjugate Ab16-X2 (antibody, human IgG1, kappa, V domains shown)
VH: QVQLQQPGTEVVKPGASVKLSCKASGFTFPLYWMHWVRQRPGRGLEWIGRIIPIFGHTKYNEKFKNKATLTADESSSTAYMELRSLTSDDSAVYYCARGGYYYYPREGFLDYWGQGTSVTVSS
VL: DIVMTQSPASLSVSPGERASISCRSSQSVDYSGDSYMNWYQQKPGQSPRLLIYAASDRESGVPDRFSGSGSGTDFTLKISRVEEEDAGTYYCQQSREDPFTFGQGTKVDIKR
modifications: linker-payload X2 (camptothecin type) conjugated after reduction with tris(2-carboxyethyl)phosphine; DAR p = 7.9; sites not given

- Mean fluorescence intensity (MFI) [36]: 370
- Mean fluorescence intensity (MFI) [37]: 623
- Mean fluorescence intensity (MFI) [38]: 376
- Mean fluorescence intensity (MFI) [39]: 3290
- Mean fluorescence intensity (MFI) [40]: 16600
- Mean fluorescence intensity (MFI) [41]: 396
- IC50 (nM) of proliferation inhibition, Calu-3 cells, CellTiter-Glo, 6 days [33]: 8.6 nM
- Mean fluorescence intensity (MFI) [42]: 1090
- Mean fluorescence intensity (MFI) [43]: 2960
- Mean fluorescence intensity (MFI) [44]: 1790
- Mean fluorescence intensity (MFI) [45]: 451
- Mean fluorescence intensity (MFI) [46]: 1780
- Mean fluorescence intensity (MFI) [47]: 17400
B2: antibody-drug conjugate Ab16-X1 (antibody, human IgG1, kappa, V domains shown)
VH: QVQLQQPGTEVVKPGASVKLSCKASGFTFPLYWMHWVRQRPGRGLEWIGRIIPIFGHTKYNEKFKNKATLTADESSSTAYMELRSLTSDDSAVYYCARGGYYYYPREGFLDYWGQGTSVTVSS
VL: DIVMTQSPASLSVSPGERASISCRSSQSVDYSGDSYMNWYQQKPGQSPRLLIYAASDRESGVPDRFSGSGSGTDFTLKISRVEEEDAGTYYCQQSREDPFTFGQGTKVDIKR
modifications: linker-payload X1 (camptothecin type) conjugated after reduction with tris(2-carboxyethyl)phosphine; DAR p = 7.8; sites not given
